Assay results: the supplement of paper PMC12042874
± gives the uncertainty stated by the source.

Experiment: amyloid nucleation score (Sup35N fusion, yeast selection) (log enrichment); library NNK2; higher = more nucleation; inactive = no reads after selection
Outline: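 On medium lacking adenine and uracil, psi-negative yeast expressing peptides of 20 random codons fused to Sup35N were grown 7 days at 30°C after a 24-hour induction with 100 μM copper sulfate. Illumina sequencing of input and output plasmid inserts gave the reads, and sequences under 100 input reads were excluded. The nucleation score is the DiMSum log enrichment of output over input reads, centred on the mode score of non-aggregating sequences.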
Work on IWSSHRVSHGVILESGEVWA yielded an amyloid nucleation score of -0.25 ± 0.42.
IWTRLGYRQVPRYSAIFSAV gave an amyloid nucleation score of 0.136 ± 0.37.
With IWYESWEQHGKDVQVPMVTD the amyloid nucleation score was 0.623 ± 0.22.
For IYACSCLIKVDFYEAIPIWV, the amyloid nucleation score was “inactive”.
In the case of IYEGIIVIFSDTGTLWRYWI, the amyloid nucleation score is reported as -2.09 ± 0.54.
Work on IYGSYVLDLVGVNLAGKGEN yielded an amyloid nucleation score of -0.347 ± 1.
Work on IYHYPKRREGVIK yielded an amyloid nucleation score of 0.224 ± 0.56.
Substance IYKQLMVCHKCSDSAVTGYQ has an amyloid nucleation score of 6.14 ± 0.075.
In the case of IYLQGAGLL, the amyloid nucleation score is reported as “inactive”.
IYLSTCTYF showed an amyloid nucleation score of 0.155 ± 0.49.
In the case of IYRDPHNYCM, the amyloid nucleation score is reported as -0.751 ± 1.1.
Substance IYRGESIIWVNNSWIEDSLR has an amyloid nucleation score of 1.56 ± 0.12.
IYRRPMENI gave an amyloid nucleation score of -0.389 ± 0.36.
With IYRTYYGMNACLINLCMFDN the amyloid nucleation score was 7.734 ± 0.055.
With IYVGIHNLILMTSTLGVNKR the amyloid nucleation score was 6.06 ± 0.041.
With IYWLKTPMLLYWGSPCPRNA the amyloid nucleation score was 0.058 ± 1.
For KAFFFPQFCCIYGLGM, the amyloid nucleation score was 8.903 ± 0.035.
KAKWFNFLFYNFLQYACLSQ gave an amyloid nucleation score of 1.37 ± 0.087.
Substance KAKYTTILCCIDRCGCIGQY has an amyloid nucleation score of 8.613 ± 0.046.
In the case of KARSRLLVFYKYTKGIWAQS, the amyloid nucleation score is reported as -0.147 ± 1.1.
With KATRTFY the amyloid nucleation score was 0.495 ± 0.34.
With KATSCFLDWCGCPWHLMALD the amyloid nucleation score was 0.496 ± 0.29.
Work on KAWFLESSKYSYRSWFR yielded an amyloid nucleation score of -0.641 ± 0.38.
Substance KCILDRVRGTGLGIMKLKRG has an amyloid nucleation score of 0.306 ± 0.65.
KCSKLRGYTCIMLSIGCLNY gave an amyloid nucleation score of 2.71 ± 0.07.
In the case of KCSSCEF, the amyloid nucleation score is reported as 0.768 ± 0.47.
With KCWLLGHWEDFCTLSKMERN the amyloid nucleation score was “inactive”.
With KDCLTVVMLSLVHLRPCY the amyloid nucleation score was “inactive”.
For KDGKALT, the amyloid nucleation score was “inactive”.
Work on KDLPFGTYGNGGAGSRTMRH yielded an amyloid nucleation score of 0.19 ± 0.27.
KELYTSVSQGLCRYSISSCR gave an amyloid nucleation score of -0.786 ± 0.35.
KFACCRYVGVYYKTTYSILR showed an amyloid nucleation score of -1.17 ± 0.49.
With KFCSRVFSQCMSYLSCLLDF the amyloid nucleation score was 0.17 ± 0.74.
KFKLLMTSRWDTFNVADTYD gave an amyloid nucleation score of 5.04 ± 0.042.
Work on KFYIPSDLVLVRCPST yielded an amyloid nucleation score of -0.883 ± 1.1.
With KGDQKSTFCVRPFWESPNIV the amyloid nucleation score was -0.046 ± 0.74.
Substance KGLWTISVSLWVV has an amyloid nucleation score of 0.112 ± 0.18.
In the case of KGRFHNLTEPGRVQEKE, the amyloid nucleation score is reported as -1.32 ± 0.49.
With KHLRFASEVNFSARVPPPWL the amyloid nucleation score was -0.229 ± 0.33.
Work on KHSEDSYCFMSGLSGVICCK yielded an amyloid nucleation score of 0.932 ± 0.19.
Substance KHSIMRRKRGFPATKR has an amyloid nucleation score of 0.722 ± 0.43.
In the case of KILNCTGSQVKS, the amyloid nucleation score is reported as -0.032 ± 0.25.
With KILSYASLSAGSFLVQ the amyloid nucleation score was -0.531 ± 1.1.
KIRASVNSSRFFWFDAS gave an amyloid nucleation score of 2.96 ± 0.13.
With KISFVALAVDARYGWCLFHY the amyloid nucleation score was 0.358 ± 0.24.
KISSLLGWLWRITIRRLGRA showed an amyloid nucleation score of 0.617 ± 0.65.
Work on KISSMAVI yielded an amyloid nucleation score of 0.069 ± 0.48.
KKKDSAKLLVTE gave an amyloid nucleation score of -0.409 ± 0.76.
With KLAVCLCGSKHNDLGYRGDP the amyloid nucleation score was “inactive”.
For KLFQNHLIINCPAMVISNEQ, the amyloid nucleation score was 7.609 ± 0.057.
In the case of KLGKPFARRKFCICNSQWVG, the amyloid nucleation score is reported as -0.743 ± 0.31.
KLGWTRLTPNVAHFHLIVGL showed an amyloid nucleation score of 0.583 ± 0.4.
In the case of KLGYHLSMIFVFRNVVCPYI, the amyloid nucleation score is reported as -0.711 ± 1.1.
Substance KLHQNSKGCPGVLPVDGLKM has an amyloid nucleation score of 0.82 ± 0.56.
Substance KLKCHMSESLKWIGAVKSRR has an amyloid nucleation score of 0.776 ± 0.43.
KLKSVRDLSCLSYHSDIKVK gave an amyloid nucleation score of 3.58 ± 0.055.
KLLPEWSWKG showed an amyloid nucleation score of 0.428 ± 0.39.
With KLNLGGCLMSRVYC the amyloid nucleation score was 0.345 ± 0.16.
With KLPIRLMTCASNFNLGNCWL the amyloid nucleation score was 6.003 ± 0.038.
With KLRFYIYCFILLKCMTGART the amyloid nucleation score was “inactive”.
For KLSWRIRA, the amyloid nucleation score was 0.403 ± 0.42.
In the case of KMAMTVLILPYVPGQLRLTE, the amyloid nucleation score is reported as 3.12 ± 0.1.
In the case of KNFFSRRTW, the amyloid nucleation score is reported as 2.98 ± 0.14.
With KNGATLSCYILYSCGLMASV the amyloid nucleation score was -2.34 ± 0.62.
Work on KNNSFWGISLTGLLGYIYTR yielded an amyloid nucleation score of -0.627 ± 1.
With KNRRFT the amyloid nucleation score was -0.493 ± 1.1.
Work on KNSCSMYVMMCGSQVLGLVS yielded an amyloid nucleation score of 7.75 ± 0.084.
With KNTMIGSLRLVIYFSSGDKV the amyloid nucleation score was 7.17 ± 0.034.
Work on KPLLVN yielded an amyloid nucleation score of 0.271 ± 0.46.
KPSKYPVYLLGVVKVQVDYD showed an amyloid nucleation score of -0.849 ± 1.1.
KQFDMDAWLTWSRMVFMSPV showed an amyloid nucleation score of 0.044 ± 0.39.
For KQLKWFCITK, the amyloid nucleation score was -0.862 ± 0.45.
KQVNPPIA gave an amyloid nucleation score of -0.541 ± 1.1.
For KRDRIAFPMEIDDIIKAWM, the amyloid nucleation score was -0.929 ± 0.55.
In the case of KRFGLVCVIQQAQKWVNGTG, the amyloid nucleation score is reported as 0.179 ± 0.51.
For KRGSAEFNQLDHYECTRYEC, the amyloid nucleation score was “inactive”.
Work on KRHNR yielded an amyloid nucleation score of 0.846 ± 0.48.
KRKISDSSPRDRWVALLKKL gave an amyloid nucleation score of 2.15 ± 0.15.
With KRLVGVTAMMCSFFLYLFLE the amyloid nucleation score was 0.859 ± 0.35.
In the case of KRTWRFFYRL, the amyloid nucleation score is reported as “inactive”.
Substance KRYTHRCKPFTLHHLPVDAR has an amyloid nucleation score of 1.25 ± 0.33.
KSCYIAV showed an amyloid nucleation score of -0.066 ± 0.45.
Substance KSGGDDLESSWRCWASMGLM has an amyloid nucleation score of 0.182 ± 0.31.
With KSICARVFTIQMRNVSVQSS the amyloid nucleation score was 0.158 ± 0.43.
In the case of KSLDYFSECRDSPNML, the amyloid nucleation score is reported as -0.757 ± 0.48.
For KSLKCFHLVRFTFS, the amyloid nucleation score was -0.492 ± 0.36.
